According to patent publication US11369662B2 (The Medical College of Wisconsin, Inc., priority 2014, dated 2022):
Entries after “also recorded” stand apart in the source; their conditions may differ.

Columns and labels:
CXCR4 [1] = molecular target: T1, CXCR4 (Homo sapiens, UniProt P61073); assay: β-arrestin-2 recruitment BRET assay in HEK293 cells; type: cell-based; settings: concentrations increased to 10 and 100 μM
T1 construct: purchased Millipore
Procedure: β-arrestin-2 recruitment. β-arrestin-2 recruitment was measured using an intermolecular BRET assay performed as described previously. HEK293E cells were cotransfected with […] of CXCR4-eYFP construct with […] of β-arrestin-2-RLuc (a gift from Michel Bouvier, University of Montreal, Montreal, QC, Canada). For [acceptor]/[donor]titrations […] of β-arrestin-2-RLuc were cotransfected with increasing amounts of the CXCR4-eYFP construct. All transfections were completed to 2 mg/well with empty vector. […] Cells were washed once with PBS, and the RLuc substrate coelenterazine-II (NanoLight Technology) was added at a final concentration of […] to BRET buffer (PBS, 0.5 mM MgCl2, 0.1% w/v glucose). β-arrestin recruitment was measured 30 min after ligand addition. […]
β-arrestin-2 recruitment. β-arrestin-2 recruitment was measured using an intermolecular BRET assay performed as described previously. […] The medium of the cells was then changed to BRET buffer (PBS, 0.5 mM MgC2, 0.1% (w/v) BSA). β-arrestin-2 recruitment was measured 15 min after ligand addition, and 10 min after the addition of the RLuc3 substrate coelenterazine400a (NanoLight Technology) at a final concentration of […]. […]

CXCR4 [2] = molecular target: T1, CXCR4; assay: CXCR4 internalization assay in HeLa cells; type: cell-based; settings: 80 ng/ml, 20 min, FACS surface expression
Procedure: CXCR4 internalization assay. HeLa cells grown on 6-cm dishes were washed twice with PBS and detached from the surface of the plate by incubating with 350 μl Cellstripper cell dissociation solution (Mediatech, Va.) for 10 min at 37° C. Cells were collected in 4 ml PBS containing 0.1% BSA (Media Tech, Va.) by centrifugation. Cell pellets were re-suspended in 1.5 ml PBS-0.1% BSA and 5×10^5 cells were transferred to a fresh 5 ml polystyrene round bottom tube (BD falcon) and washed once with PBS+0.1% BSA and re-suspended in 250 μl PBS-0.1% BSA. […] Following treatment, 4 mL cold PBS was added to each tube, cells were collected by centrifugation and then fixed by re-suspending the pellet in 500 μl 4% paraformaldehyde (made in PBS) and incubating for 15 min at 37° C. Cells were collected by centrifugation and washed once with 4 mL PBS and then twice with PBS-0.1% BSA. […] CXCR4 surface expression was analyzed by flow cytometry (FACS-CANTO; Becton Dickinson) and analysis was performed using FlowJo v.9.3 software.
CXCR4 internalization assay. […] CXCR4 surface expression was analyzed by flow cytometry (FACS-CANTO; Becton Dickinson) and analysis was performed using FlowJo v.9.3 software.

T1 sequence (P61073 whole entry): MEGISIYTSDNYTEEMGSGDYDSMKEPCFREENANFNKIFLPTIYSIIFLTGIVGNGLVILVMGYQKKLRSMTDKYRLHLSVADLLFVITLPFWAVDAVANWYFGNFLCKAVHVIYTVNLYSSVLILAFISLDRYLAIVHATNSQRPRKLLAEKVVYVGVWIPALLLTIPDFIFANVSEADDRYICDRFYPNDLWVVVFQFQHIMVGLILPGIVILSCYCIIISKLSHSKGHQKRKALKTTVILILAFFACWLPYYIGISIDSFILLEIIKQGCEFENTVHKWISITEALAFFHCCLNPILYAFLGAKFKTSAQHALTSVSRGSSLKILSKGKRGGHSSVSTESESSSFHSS

Row | CXCR4 internalization (CXCR4 [2]) | Substance | shape of β-arrestin-2 recruitment dose response (CXCR4 [1])
1 |  | CXCL12WT: wild type CXCL12 (stromal cell-derived factor-1/SDF-1), SEQ ID NO:1 | bimodal recruitment; also recorded: bimodal stimulation
2 | nominal internalization | CXCL122: constitutively dimeric variant of CXCL12 containing L36C/A65C mutations | 
